According to article PMC7367873, “Dissecting the sequence determinants for dephosphorylation by the catalytic subunits of phosphatases PP1 and PP2A” (Nature Communications, 2020):

Experiments:
[1] = system: GFP-14-3-3β; assay: GFP-14-3-3β co-IP with LC-MS/MS, untreated GFP-14-3-3β versus GFP control (14-3-3 interactome); assay type: binding, human; conditions: pairwise comparison untreated vs GFP
[2] = system: GFP-14-3-3β and its binding proteins; assay: GFP-14-3-3β co-IP with LC-MS/MS label-free quantification, untreated versus PP1c-treated; design: species or system human; conditions: pairwise comparison PP1 vs untreated

| Molecule | Difference (log2), untreated vs GFP [1] [log2] | Difference (log2), PP1 vs untreated [2] [log2] |
| --- | --- | --- |
| HNRNPA1;HNRNPA1L2 (protein, UniProt P09651 1-372, looked up) Heterogeneous nuclear …: MSKSESPKEPEQLRKLFIGGLSFETTDESLRSHFEQWGTLTDCVVMRDPNTKRSRGFGFVTYATVEEVDAAMNARPHKVDGRVVEPKRAVSREDSQRPGAHLTVKKIFVGGIKEDTEEHHLRDYFEQYGKIEVIEIMTDRGSGKKRGFAFVTFDDHDSVDKIVIQKYHTVNGHNCEVRKALSKQEMASASSSQRGRSGSGNFGGGRGGGFGGNDNFGRGGNFSGRGGFGGSRGGGGYGGSGDGYNGFGNDGGYGGGGPGYSGGSRGYGSGGQGYGNQGSGYGGSGSYDSYNNGGGGGFGGGSGSNFGGGGSYNDFGNYNNQSSNFGPMKGGNFGGRSSGPYGGGGQYFAKPRNQGGYGGSSSSSSYGSGRRF | 0.6063 | -0.1001 |
| TMOD3 (protein, UniProt Q9NYL9 1-352, looked up) Tropomodulin-3: MALPFRKDLEKYKDLDEDELLGNLSETELKQLETVLDDLDPENALLPAGFRQKNQTSKSTTGPFDREHLLSYLEKEALEHKDREDYVPYTGEKKGKIFIPKQKPVQTFTEEKVSLDPELEEALTSASDTELCDLAAILGMHNLITNTKFCNIMGSSNGVDQEHFSNVVKGEKILPVFDEPPNPTNVEESLKRTKENDAHLVEVNLNNIKNIPIPTLKDFAKALETNTHVKCFSLAATRSNDPVATAFAEMLKVNKTLKSLNVESNFITGVGILALIDALRDNETLAELKIDNQRQQLGTAVELEMAKMLEENTNILKFGYQFTQQGPRTRAANAITKNNDLVRKRRVEGDHQ | 0.4757 | -0.1127 |
| EIF2AK2 (protein, UniProt P19525 2-551, looked up) Interferon-induced, …: AGDLSAGFFMEELNTYRQKQGVVLKYQELPNSGPPHDRRFTFQVIIDGREFPEGEGRSKKEAKNAAAKLAVEILNKEKKAVSPLLLTTTNSSEGLSMGNYIGLINRIAQKKRLTVNYEQCASGVHGPEGFHYKCKMGQKEYSIGTGSTKQEAKQLAAKLAYLQILSEETSVKSDYLSSGSFATTCESQSNSLVTSTLASESSSEGDFSADTSEINSNSDSLNSSSLLMNGLRNNQRKAKRSLAPRFDLPDMKETKYTVDKRFGMDFKEIELIGSGGFGQVFKAKHRIDGKTYVIKRVKYNNEKAEREVKALAKLDHVNIVHYNGCWDGFDYDPETSDDSLESSDYDPENSKNSSRSKTKCLFIQMEFCDKGTLEQWIEKRRGEKLDKVLALELFEQITKGVDYIHSKKLIHRDLKPSNIFLVDTKQVKIGDFGLVTSLKNDGKRTRSKGTLRYMSPEQISSQDYGKEVDLYALGLILAELLHVCDTAFETSKFFTDLRDGIISDIFDKKEKTLLQKLLSKKPEDRPNTSEILRTLTVWKKSPEKNERHTC | 2.168 | -0.09631 |
| LIG3 (protein, UniProt P49916 43-1009, looked up) DNA ligase 3: LLHGHPLFLRRKPVLSFQGSHLRSRATYLVFLPGLHVGLCSGPCEMAEQRFCVDYAKRGTAGCKKCKEKIVKGVCRIGKVVPNPFSESGGDMKEWYHIKCMFEKLERARATTKKIEDLTELEGWEELEDNEKEQITQHIADLSSKAAGTPKKKAVVQAKLTTTGQVTSPVKGASFVTSTNPRKFSGFSAKPNNSGEAPSSPTPKRSLSSSKCDPRHKDCLLREFRKLCAMVADNPSYNTKTQIIQDFLRKGSAGDGFHGDVYLTVKLLLPGVIKTVYNLNDKQIVKLFSRIFNCNPDDMARDLEQGDVSETIRVFFEQSKSFPPAAKSLLTIQEVDEFLLRLSKLTKEDEQQQALQDIASRCTANDLKCIIRLIKHDLKMNSGAKHVLDALDPNAYEAFKASRNLQDVVERVLHNAQEVEKEPGQRRALSVQASLMTPVQPMLAEACKSVEYAMKKCPNGMFSEIKYDGERVQVHKNGDHFSYFSRSLKPVLPHKVAHFKDYIPQAFPGGHSMILDSEVLLIDNKTGKPLPFGTLGVHKKAAFQDANVCLFVFDCIYFNDVSLMDRPLCERRKFLHDNMVEIPNRIMFSEMKRVTKALDLADMITRVIQEGLEGLVLKDVKGTYEPGKRHWLKVKKDYLNEGAMADTADLVVLGAFYGQGSKGGMMSIFLMGCYDPGSQKWCTVTKCAGGHDDATLARLQNELDMVKISKDPSKIPSWLKVNKIYYPDFIVPDPKKAAVWEITGAEFSKSEAHTADGISIRFPRCTRIRDDKDWKSATNLPQLKELYQLSKEKADFTVVAGDEGSSTTGGSSEENKGPSGSAVSRKAPSKPSASTKKAEGKLSNSNSKDGNMQTAKPSAMKVGEKLATKSSPVKVGEKRKAADETLCQTKVLLDIFTGVRLYLPPSTPDFSRLRRYFVAFDGDLVQEFDMTSATHVLGSRDKNPAAQQVSPEWIWACIRKRRLVAPC | -0.6994 | -0.06583 |
| PATL1 (protein, UniProt Q86TB9 1-770, looked up) Protein PAT1 homolog 1: MFRYESLEDCPLDEDEDAFQGLGEEDEEIDQFNDDTFGSGAVDDDWQEAHERLAELEEKLPVAVNEQTGNGERDEMDLLGDHEENLAERLSKMVIENELEDPAIMRAVQTRPVLQPQPGSLNSSIWDGSEVLRRIRGPLLAQEMPTVSVLEYALPQRPPQGPEDDRDLSERALPRRSTSPIIGSPPVRAVPIGTPPKQMAVPSFTQQILCPKPVHVRPPMPPRYPAPYGERMSPNQLCSVPNSSLLGHPFPPSVPPVLSPLQRAQLLGGAQLQPGRMSPSQFARVPGFVGSPLAAMNPKLLQGRVGQMLPPAPGFRAFFSAPPSATPPPQQHPPGPGPHLQNLRSQAPMFRPDTTHLHPQHRRLLHQRQQQNRSQHRNLNGAGDRGSHRSSHQDHLRKDPYANLMLQREKDWVSKIQMMQLQSTDPYLDDFYYQNYFEKLEKLSAAEEIQGDGPKKERTKLITPQVAKLEHAYKPVQFEGSLGKLTVSSVNNPRKMIDAVVTSRSEDDETKEKQVRDKRRKTLVIIEKTYSLLLDVEDYERRYLLSLEEERPALMDDRKHKICSMYDNLRGKLPGQERPSDDHFVQIMCIRKGKRMVARILPFLSTEQAADILMTTARNLPFLIKKDAQDEVLPCLLSPFSLLLYHLPSVSITSLLRQLMNLPQSAATPALSNPHLTAVLQNKFGLSLLLILLSRGEDLQSSDPATESTQNNQWTEVMFMATRELLRIPQAALAKPISIPTNLVSLFSRYVDRQKLNLLETKLQLVQGIR | -0.4586 | -0.05274 |
| MYBBP1A (protein, UniProt Q9BQG0 1-1328, looked up) Myb-binding protein 1A: MESRDPAQPMSPGEATQSGARPADRYGLLKHSREFLDFFWDIAKPEQETRLAATEKLLEYLRGRPKGSEMKYALKRLITGLGVGRETARPCYSLALAQLLQSFEDLPLCSILQQIQEKYDLHQVKKAMLRPALFANLFGVLALFQSGRLVKDQEALMKSVKLLQALAQYQNHLQEQPRKALVDILSEVSKATLQEILPEVLKADLNIILSSPEQLELFLLAQQKVPSKLKKLVGSVNLFSDENVPRLVNVLKMAASSVKKDRKLPAIALDLLRLALKEDKFPRFWKEVVEQGLLKMQFWPASYLCFRLLGAALPLLTKEQLHLVMQGDVIRHYGEHVCTAKLPKQFKFAPEMDDYVGTFLEGCQDDPERQLAVLVAFSSVTNQGLPVTPTFWRVVRFLSPPALQGYVAWLRAMFLQPDLDSLVDFSTNNQKKAQDSSLHMPERAVFRLRKWIIFRLVSIVDSLHLEMEEALTEQVARFCLFHSFFVTKKPTSQIPETKHPFSFPLENQAREAVSSAFFSLLQTLSTQFKQAPGQTQGGQPWTYHLVQFADLLLNHSHNVTTVTPFTAQQRQAWDRMLQTLKELEAHSAEARAAAFQHLLLLVGIHLLKSPAESCDLLGDIQTCIRKSLGEKPRRSRTKTIDPQEPPWVEVLVEILLALLAQPSHLMRQVARSVFGHICSHLTPRALQLILDVLNPETSEDENDRVVVTDDSDERRLKGAEDKSEEGEDNRSSESEEESEGEESEEEERDGDVDQGFREQLMTVLQAGKALGGEDSENEEELGDEAMMALDQSLASLFAEQKLRIQARRDEKNKLQKEKALRRDFQIRVLDLVEVLVTKQPENALVLELLEPLLSIIRRSLRSSSSKQEQDLLHKTARIFTHHLCRARRYCHDLGERAGALHAQVERLVQQAGRQPDSPTALYHFNASLYLLRVLKGNTAEGCVHETQEKQKAGTDPSHMPTGPQAASCLDLNLVTRVYSTALSSFLTKRNSPLTVPMFLSLFSRHPVLCQSLLPILVQHITGPVRPRHQACLLLQKTLSMREVRSCFEDPEWKQLMGQVLAKVTENLRVLGEAQTKAQHQQALSSLELLNVLFRTCKHEKLTLDLTVLLGVLQGQQQSLQQGAHSTGSSRLHDLYWQAMKTLGVQRPKLEKKDAKEIPSATQSPISKKRKKKGFLPETKKRKKRKSEDGTPAEDGTPAATGGSQPPSMGRKKRNRTKAKVPAQANGTPTTKSPAPGAPTRSPSTPAKSPKLQKKNQKPSQVNGAPGSPTEPAGQKQHQKALPKKGVLGKSPLSALARKKARLSLVIRSPSLLQSGAKKKAQVRKAGKP | 2.289 | -0.04518 |
| GNB2 (protein, UniProt P62879 2-340, looked up) Guanine nucleotide-binding …: SELEQLRQEAEQLRNQIRDARKACGDSTLTQITAGLDPVGRIQMRTRRTLRGHLAKIYAMHWGTDSRLLVSASQDGKLIIWDSYTTNKVHAIPLRSSWVMTCAYAPSGNFVACGGLDNICSIYSLKTREGNVRVSRELPGHTGYLSCCRFLDDNQIITSSGDTTCALWDIETGQQTVGFAGHSGDVMSLSLAPDGRTFVSGACDASIKLWDVRDSMCRQTFIGHESDINAVAFFPNGYAFTTGSDDATCRLFDLRADQELLMYSHDNIICGITSVAFSRSGRLLLAGYDDFNCNIWDAMKGDRAGVLAGHDNRVSCLGVTDDGMAVATGSWDSFLKIWN | -1.0406 | -0.1195 |
| CSNK1A1 (protein, UniProt P48729 2-337, looked up) Casein kinase I isoform alpha: ASSSGSKAEFIVGGKYKLVRKIGSGSFGDIYLAINITNGEEVAVKLESQKARHPQLLYESKLYKILQGGVGIPHIRWYGQEKDYNVLVMDLLGPSLEDLFNFCSRRFTMKTVLMLADQMISRIEYVHTKNFIHRDIKPDNFLMGIGRHCNKLFLIDFGLAKKYRDNRTRQHIPYREDKNLTGTARYASINAHLGIEQSRRDDMESLGYVLMYFNRTSLPWQGLKAATKKQKYEKISEKKMSTPVEVLCKGFPAEFAMYLNYCRGLRFEEAPDYMYLRQLFRILFRTLNHQYDYTFDWTMLKQKAAQQAASSSGQGQQAQTPTGKQTDKTKSNMKGF | 0.6201 | -0.08165 |
| TRIP13 (protein, UniProt Q15645 1-432, looked up) Pachytene checkpoint protein …: MDEAVGDLKQALPCVAESPTVHVEVHQRGSSTAKKEDINLSVRKLLNRHNIVFGDYTWTEFDEPFLTRNVQSVSIIDTELKVKDSQPIDLSACTVALHIFQLNEDGPSSENLEEETENIIAANHWVLPAAEFHGLWDSLVYDVEVKSHLLDYVMTTLLFSDKNVNSNLITWNRVVLLHGPPGTGKTSLCKALAQKLTIRLSSRYRYGQLIEINSHSLFSKWFSESGKLVTKMFQKIQDLIDDKDALVFVLIDEVESLTAARNACRAGTEPSDAIRVVNAVLTQIDQIKRHSNVVILTTSNITEKIDVAFVDRADIKQYIGPPSAAAIFKIYLSCLEELMKCQIIYPRQQLLTLRELEMIGFIENNVSKLSLLLNDISRKSEGLSGRVLRKLPFLAHALYVQAPTVTIEGFLQALSLAVDKQFEERKKLAAYI | 0.9602 | -0.09713 |
